From patent US20150093388A1 (IMMUNOGEN, published 2015) come the findings set out here.

The target of assay [1] is T1, recombinant FOLR2-His (R&D Systems) (UniProt P14207 17-228, limits assumed).
T1 construct: not shown: His tag
The assay can be described thus: ELISA, FOLR2-His immobilized on Ni-NTA plate. As for the experimental part:
(§1) FOLR1 is a member of Folate Receptor family. Cross-reactivity of the anti-FOLR1 antibodies with the other members of the family FOLR2 and FOLR3 was assayed by ELISA. Recombinant protein FOLR2-His or FOLR3-His (R&D Systems) was immobilized to Ni-NTA plates (QIAGEN) and the anti-FOLR1 antibodies were added to the plates and incubated for 2 hours at room temperature. As positive controls for FOLR2 and FOLR3 ELISA polyclonal anti-FOLR2 and FOLR3 antibodies (R&D systems), respectively, were used. The formed antibody-antigen complexes were detected with hip-labeled goat anti-murine secondary antibody.
In general terms: ELISA stands for enzyme-linked immunosorbent assay.

The target in assay [2] is T2, recombinant FOLR3-His (R&D Systems) (UniProt P41439 23-245, limits assumed).
T2 construct: not shown: His tag
T2 sequence (P41439 23-245 limits assumed): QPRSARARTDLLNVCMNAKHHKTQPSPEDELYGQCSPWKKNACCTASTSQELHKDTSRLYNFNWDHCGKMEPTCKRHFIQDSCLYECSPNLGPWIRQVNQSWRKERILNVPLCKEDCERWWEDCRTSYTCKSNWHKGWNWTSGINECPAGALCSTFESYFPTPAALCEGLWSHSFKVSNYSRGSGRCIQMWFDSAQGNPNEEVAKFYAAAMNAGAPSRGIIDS
The assay can be described thus: ELISA, FOLR3-His immobilized on Ni-NTA plate. As to the method: as §1

For assay [3], the target named is T3, recombinant human FOLR1-murine IgG2a Fc protein (human; murine, UniProt P15328 25-234, limits assumed).
T3 construct: also called humanFOLR1-murine Fc2a; FOLR1-Fc; not shown: murine IgG2a Fc
T3 sequence (P15328 25-234 limits assumed): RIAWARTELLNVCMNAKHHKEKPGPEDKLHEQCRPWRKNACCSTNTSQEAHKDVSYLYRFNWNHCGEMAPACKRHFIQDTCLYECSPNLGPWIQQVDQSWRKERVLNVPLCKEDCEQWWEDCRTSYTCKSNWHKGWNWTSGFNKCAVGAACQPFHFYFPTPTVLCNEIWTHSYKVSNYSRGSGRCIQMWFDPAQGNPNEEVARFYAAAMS
The assay can be described thus: ELISA, recombinant human FOLR1-murine Fc2a immobilized on the plate, hrp goat anti-murine secondary. As to the method: The binding affinity of the anti-FOLR1 antibodies was examined by ELISA where recombinant humanFOLR1-murine Fc2a protein was used as the antigen. The recombinant protein was immobilized on microtiter plates, and the antibodies were added at a range of concentrations to the plates. The plates were incubated for two hours at room temperature, washed with PBS supplemented with 0.05% Tween-20, and incubated with hrp-labeled goat anti-murine secondary antibody for one hour at room temperature. The plates were washed with PBS/Tween-20 again, and bound hrp-conjugated antibody was detected by adding the hrp-substrate TMB (Bio-FX).

Assay [4] concerns the target T4, human folate receptor 1 (FOLR1) on cells, in cell lysates and in FFPE tissues (human, UniProt P15328 25-234, N-glycosylated at positions 69, 161 and 201).
T4 construct: also called folate receptor alpha; FR-alpha
Kind of assay: Western blot of cell lysates. As to the method:
(§2) Human FOLR1 has three potential sites for N-glycosylation at positions 69, 161 and 201 (UniProt), and, as reported in literature, all three sites are glycosylated. To characterize the nature of the epitopes recognized by the anti-FOLR1 antibodies described herein, binding experiments were performed with deglycosylated and non-treated receptor. Of the generated anti-FOLR1 clones, only clone 2.1 was used in the study because, based on the sequencing data, the clones are related and likely to bind to the same epitope. In addition to clone 2.1, two other anti-FOLR1 antibodies were included: huMov19 (WO 2011/106528) and clone BN3.2 (Leica). In order to deglycosylate FOLR1, recombinant human FOLR1 or lysates of FOLR1-positive KB or Igrov-1 cells were treated with a mixture of deglycosylation enzymes (Enzymatic DeGlycoMX Kit, QA-bio) according to the Manufacturer's protocol. Then, samples of treated and non-treated FOLR1 were used in ELISA and Western blot analysis. […] After 2 h incubation, antibody-antigen complexes were detected with hip-labeled goat anti-human (for huMov19) or anti-murine (for 2.1) secondary antibody (FIG. 7). […] The membrane was incubated with the anti-FOLR1 antibodies 2.1, huMov19, or BN3.2, and the antigen-antibody complexes were detected with the appropriate secondary anti-murine or anti human antibodies conjugated with horse-radish peroxidase (FIG. 8).
For orientation: Immunoblotting shows a protein as a band on a membrane.

Assay [5] has as its target T5, deglycosylated human FOLR1 in lysates of KB and Igrov-1 cells (human, UniProt P15328 25-234, glycans removed with a mixture of deglycosylation enzymes (Enzymatic DeGlycoMX Kit)).
T5 construct: Endogenous FOLR1 of cell lysates after enzymatic deglycosylation; also called deglycosylated lysates
Kind of assay: Western blot of enzymatically deglycosylated cell lysates. As to the method:
as §2

Assay [6] concerns the target T6, recombinant human FOLR1 (non-treated) (human, UniProt P15328 25-233, limits assumed, N-glycosylated (non-treated)).
T6 construct: also called huFOLR1 recombinant protein; non-treated FOLR1
Kind of assay: ELISA, FOLR1 immobilized on the plate, hrp goat anti-human secondary. As to the method:
as §2

Assay [7] has as its target T7, deglycosylated recombinant human FOLR1 (human, UniProt P15328 25-233, limits assumed, glycans removed with a mixture of deglycosylation enzymes (Enzymatic DeGlycoMX Kit)).
T7 construct: also called deglycosylated FOLR1
The assay can be described thus: ELISA, deglycosylated FOLR1 immobilized on the plate, hrp goat anti-human secondary. As to the method:
as §2

Substitutions are numbered along the chain they refer to. Numbers in names are those of the source.

T1 sequence (P14207 17-228 limits assumed): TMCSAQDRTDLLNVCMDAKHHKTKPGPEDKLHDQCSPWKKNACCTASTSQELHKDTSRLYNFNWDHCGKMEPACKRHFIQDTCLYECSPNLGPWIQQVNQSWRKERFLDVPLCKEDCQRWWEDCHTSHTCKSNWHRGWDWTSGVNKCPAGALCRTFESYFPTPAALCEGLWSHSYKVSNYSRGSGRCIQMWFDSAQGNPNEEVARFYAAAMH
T7 sequence (P15328 25-233 limits assumed): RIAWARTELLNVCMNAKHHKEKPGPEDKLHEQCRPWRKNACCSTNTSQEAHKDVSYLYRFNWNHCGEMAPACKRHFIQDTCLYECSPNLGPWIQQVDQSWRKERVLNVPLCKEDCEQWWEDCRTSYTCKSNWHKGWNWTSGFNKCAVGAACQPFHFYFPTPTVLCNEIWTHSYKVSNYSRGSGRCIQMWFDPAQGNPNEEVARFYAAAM
T6 sequence (P15328 25-233 limits assumed): as above
T5 sequence (P15328 25-234): as the sequence (P15328 25-234 limits assumed) above
T4 sequence (P15328 25-234): as the sequence (P15328 25-234 limits assumed) above

B1: muFRIHC2-1 (anti-FOLR1 antibody 353.2-1, ATCC PTA-120197) (antibody, mouse IgG1, kappa, V domains shown)
VH: QVQLQQSGPELVKPGASVRISCKASGYTFTNSYIHWVKKRPGQGLEWIGWIYPESLNTQYNEKFKAKATLTADKSSSTSYMQLSSLTSEDSAVYFCARRGIYYYSPYALDHWGQGASVTVSS
VL: DVVLTQTPLSLPVNIGDQASISCKSSKSLLNSDGFTYLDWYLQKPGQSPQLLIYLVSNHFSGVPDRFSGSGSGTDFTLKISRVEAEDLGVYYCFQSNYLPLTFGGGTKLEIKR
notes: also called FOLR1-2.1
Regarding B1, the binding result in assay [1] was “no binding (tested: 10^-8 M)”; in assay [2], “no binding (tested: about 3x10^-8 M)”. For the same molecule, the EC50 in assay [3] is 0.5 nM.

B2: anti-FOLR1 antibody 353.9-21 (antibody, mouse IgG1, kappa, V domains shown)
VH: QVQLQQSGPDLVKPGASVRISCKASGFTFTNYYIHWVKQRPGQGLEWIGWIYPENVNVRYNDKFKAKATLTADKSSSTAYMQLSSLTSEDSAVYFCARRGIYYYSPYAMDYWGQGASVTVSS
VL: B1 VL with I15L, S26T
notes: Sister subclone of 9.20; also called clone 9.21
Regarding B2, the results for the binding result in assay [1] and in assay [2] were “no binding (tested: 10^-8 M)” and “no binding (tested: about 3x10^-8 M)”, respectively.

B3: muFRIHC5-7 (anti-FOLR1 antibody 353.5-7) (antibody, mouse IgG1, kappa, V domains shown)
VH: B1 VH with L11V, S32Y, K39Q, E54G, L56F, T58V, Q59E, S79V, Y103F, H111Y
VL: B1 VL with S26T, K27E, I111V
notes: Murine monoclonal; also called clone 5.7
For the molecule B3, the binding result in assay [1] is listed as “no binding (tested: 10^-8 M)”; in assay [2] it was “no binding (tested: about 3x10^-8 M)”.

B4: huMov19 (antibody, human IgG1, kappa, V domains shown)
VH: QVQLVQSGAEVVKPGASVKISCKASGYTFTGYFMNWVKQSPGQSLEWIGRIHPYDGDTFYNQKFQGKATLTVDKSSNTAHMELLSLTSEDFAVYYCTRYDGSRAMDYWGQGTTVTVSS
VL: DIVLTQSPLSLAVSLGQPAIISCKASQSVSFAGTSLMHWYHQKPGQQPRLLIYRASNLEAGVPDRFSGSGSKTDFTLTISPVEAEDAATYYCQQSREYPYTFGGGTKLEIKR
notes: the full chains labelled huMov19 HC (55) and huMov19 LCv1.60 (57) are used; also called M9346A; antibody of IMGN853
B4: the binding result in assay [4], in assay [5], in assay [6] and in assay [7] was “binds” each time.

A word on the EC50: it is the concentration at which the effect is half-maximal.
